One may read the Km as the concentration of substrate that gives half-maximal velocity.

Substrate in data set [1]: O=C[C@H](O)[C@@H](O)[C@H](O)[C@H](O)CO
As to the kind of experiment: TcGlcK Michaelis-Menten kinetics and substrate range. Particulars: other: substrate; triplicate runs. Type of data set: biochemical, Trypanosoma cruzi. The method, then:
D-Glucose was also tested as a control with alternative substrates. The protein expression work for TcGlcK and HsHxKIV were each made possible through the E. coli strain BL21(DE3) system. Purification of each enzyme was performed through cobalt-NTA chromatography followed by size-exclusion chromatography; assessment of purity was performed by SDS-PAGE. In enzymatic assays, a time-optimum (TOPT) was determined to be 120 seconds for TcGlcK and 600 seconds for HsHxKIV; all assays were run at room temperature. A general reaction scheme included a first reaction in which the monosaccharide, ATP, and Mg^2+ react with the enzyme, e.g., TcGlcK, forming a hexose-phosphate and ADP. […] Fluorescence of NADPH was monitored using a fluorescence microplate reader with […] wavelengths of 340 nm and 485 nm, respectively.
(§1) FIG. 4 and FIG. 5 present typical Michaelis-Menten enzyme kinetic plots for D-glucose. […] Michaelis-Menten constant (KM) values, which were used as the set final assay concentrations of substrates D-glucose and ATP for the primary screens, were determined for both TcGlcK and HsHxKIV in triplicate runs. […]
All phosphorylated hexoses were shown getting converted into their corresponding products by G6PDH, in abundant quantities through a 30-second time frame. […]

Substrate in data set [2]: O=C[C@H](O)[C@@H](O)[C@H](O)[C@H](O)CO
As to the kind of experiment: HsHxKIV Michaelis-Menten kinetics. Type of data set: biochemical, Homo sapiens. Particulars: other: substrate; triplicate runs. Here is the method: D-Glucose was also tested as a control with alternative substrates. The protein expression work for TcGlcK and HsHxKIV were each made possible through the E. coli strain BL21(DE3) system. Purification of each enzyme was performed through cobalt-NTA chromatography followed by size-exclusion chromatography; assessment of purity was performed by SDS-PAGE. In enzymatic assays, a time-optimum (TOPT) was determined to be 120 seconds for TcGlcK and 600 seconds for HsHxKIV; all assays were run at room temperature. A general reaction scheme included a first reaction in which the monosaccharide, ATP, and Mg^2+ react with the enzyme, e.g., TcGlcK, forming a hexose-phosphate and ADP. In a second reaction, hexose-phosphate with the assistance of glucose-6-phosphate dehydrogenase (G6PDH) and NADP^+ was converted to the lactone form of the hexose-phosphate and NADPH. Fluorescence of NADPH was monitored using a fluorescence microplate reader with […] wavelengths of 340 nm and 485 nm, respectively.
as §1

B1: TcGlcK (Trypanosoma cruzi strain CL Brener) (protein)
chain: MNIKELSLHELCEELKTPAWNVPLTFVGDVGGTSARMGFVREGKNDSVHACVTRYSMKRKDITELIEFFNEIIELMPASVIKRVKAGVINVPGPVTGGAVGGPFNNLKGIARLSDYPKALFPPGRSAILNDLEAGGFGVLAVSDAHVFSEYFGVMWEGTQWRTCEQEPAGSVIGRGRCLVLAPGTGLGSSLIYYNPMNQQHIVVPLELGSQTIPMRKDIDYIQTLHAELKLLPNYENMVSGAGLEFHYRQVVRGSRPPCSAGEIAKLASEGDANACKAMKKYHEYLMRVGSEASMALLPLTIVLVGDNIVNNAFFYRNPQNLKEMHREALNHEMERFGFQSRVTYLRQKKLLNLNLMGCYRCGLDLSVGKKQKAQL
Turning to B1, the Km in data set [1] is listed as 0.40 mM.

B2: HsHxKIV (Homo sapiens) (protein)
chain: MLDDRARMEAAKKEKVEQILAEFQLQEEDLKKVMRRMQKEMDRGLRLETHEEASVKMLPTYVRSTPEGSEVGDFLSLDLGGTNFRVMLVKVGEGEEGQWSVKTKHQMYSIPEDAMTGTAEMLFDYISECISDFLDKHQMKHKKLPLGFTFSFPVRHEDIDKGILLNWTKGFKASGAEGNNVVGLLRDAIKRRGDFEMDVVAMVNDTVATMISCYYEDHQCEVGMIVGTGCNACYMEEMQNVELVEGDEGRMCVNTEWGAFGDSGELDEFLLEYDRLVDESSANPGQQLYEKLIGGKYMGELVRLVLLRLVDENLLFHGEASEQLRTRGAFETRFVSQVESDTGDRKQIYNILSTLGLRPSTTDCDIVRRACESVSTRAAHMCSAGLAGVINRMRESRSEDVMRITVGVDGSVYKLHPSFKERFHASVRRLTPSCEITFIESEEGSGRGAALVSAVACKKACMLGQ
For B2, the Km in data set [2] is 43 mM.

The values are drawn from patent publication US11059842B2, “Monosaccharide amine and 3-nitro-2-phenyl-2H-chromene based inhibitors of glucose kinases” (UNIVERSITY OF SOUTH CAROLINA, priority 2019, dated 2021).
